Values quoted from earlier work as cited in paper PMC4125106.

Target: insulin receptor (Drosophila melanogaster) (UniProt P09208)
Test: competitive binding

Chain of UniProt P09208 (P09208 44-1310): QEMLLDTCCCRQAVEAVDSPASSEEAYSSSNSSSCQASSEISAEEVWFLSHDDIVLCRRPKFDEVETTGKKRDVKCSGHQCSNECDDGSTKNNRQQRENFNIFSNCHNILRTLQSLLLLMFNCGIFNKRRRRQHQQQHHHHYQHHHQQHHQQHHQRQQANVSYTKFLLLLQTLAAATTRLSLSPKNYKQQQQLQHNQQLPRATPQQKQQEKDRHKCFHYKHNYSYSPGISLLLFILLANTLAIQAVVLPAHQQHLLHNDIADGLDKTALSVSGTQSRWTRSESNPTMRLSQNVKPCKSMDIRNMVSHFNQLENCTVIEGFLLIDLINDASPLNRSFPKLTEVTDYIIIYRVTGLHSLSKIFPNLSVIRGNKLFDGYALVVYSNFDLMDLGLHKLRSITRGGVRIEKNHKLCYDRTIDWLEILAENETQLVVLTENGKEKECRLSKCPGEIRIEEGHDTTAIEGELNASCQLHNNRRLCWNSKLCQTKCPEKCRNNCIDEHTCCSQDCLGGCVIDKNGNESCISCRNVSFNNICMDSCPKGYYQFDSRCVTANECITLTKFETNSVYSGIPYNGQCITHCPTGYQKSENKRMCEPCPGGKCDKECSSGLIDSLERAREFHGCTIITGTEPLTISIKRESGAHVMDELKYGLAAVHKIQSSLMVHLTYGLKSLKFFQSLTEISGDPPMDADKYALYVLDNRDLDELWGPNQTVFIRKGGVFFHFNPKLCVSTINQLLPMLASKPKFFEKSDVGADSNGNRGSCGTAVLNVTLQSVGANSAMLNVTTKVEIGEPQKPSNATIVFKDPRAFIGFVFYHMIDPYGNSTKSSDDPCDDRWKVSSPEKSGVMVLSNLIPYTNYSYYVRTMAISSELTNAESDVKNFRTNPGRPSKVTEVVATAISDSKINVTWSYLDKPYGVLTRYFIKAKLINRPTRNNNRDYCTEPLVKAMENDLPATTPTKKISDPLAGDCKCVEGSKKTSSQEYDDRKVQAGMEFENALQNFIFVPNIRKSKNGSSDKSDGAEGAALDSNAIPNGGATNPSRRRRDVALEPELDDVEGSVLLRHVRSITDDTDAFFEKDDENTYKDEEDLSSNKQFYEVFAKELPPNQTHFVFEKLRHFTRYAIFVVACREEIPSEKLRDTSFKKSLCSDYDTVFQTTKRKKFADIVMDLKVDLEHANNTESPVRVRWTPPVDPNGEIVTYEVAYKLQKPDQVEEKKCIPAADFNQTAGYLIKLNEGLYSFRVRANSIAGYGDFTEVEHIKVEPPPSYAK

## Ilp5 (from UniProt Q7KUD5)
  Kd: 0.555 nM
